# B1: AdMo CD123-La5B9 (CD123-specific adapter module with an scFv recognizing the La 5B9 epitope) (bispecific antibody, part only; not given: linkers, domain order, tags, V domains shown, not shown: another chain or arm of the molecule; small tags and cut ends)
# VH 1: QVQLVQSGAEVKKPGASVKVSCKASGYTFTHYYIYWVRQAPGQGLEWMGGVNPSNGGTHFNEKFKSRVTMTRDTSISTAYMELSRLRSDDTAVYYCARSEYDYGLGFAYWGQGTLVTVSS
# VL 1: DIVMTQSPDSLAVSLGERATINCKSSQSLLNSRTPKNYLAWYQQKPGQPPKLLIYWASTRKSGVPDRFSGSGSGTDFTLTISSLQAEDVAVYYCKQSYNLLTFGGGTKVEIK
# VH 2: EVQLQQSGPELVKPGASVKMSCKASGYTFTDYYMKWVKQSHGKSLEWIGDIIPSNGATFYNQKFKGKATLTVDRSSSTAYMHLNSLTSEDSAVYYCTRSHLLRASWFAYWGQGTLVTVS
# VL 2: DFVMTQSPSSLTVTAGEKVTMSCKSSQSLLNSGNQKNYLTWYLQKPGQPPKLLIYWASTRESGVPDRFTGSGSGTDFTLTISSVQAEDLAVYYCQNDYSYPYTFGGGTKLEIK
# What was measured:
# [1] = target: RevCAR harboring the La 5B9 epitope tag, on RevCAR expressing cells (human); test: binding assay on RevCAR expressing target cells
# [2] = target: CD123 (interleukin-3 receptor a chain) on CD123-expressing OCI-AML3 blasts (human) (UniProt P26951); test: binding assay on CD123-expressing OCI-AML3 cells
# Chain of UniProt P26951 (P26951 19-378): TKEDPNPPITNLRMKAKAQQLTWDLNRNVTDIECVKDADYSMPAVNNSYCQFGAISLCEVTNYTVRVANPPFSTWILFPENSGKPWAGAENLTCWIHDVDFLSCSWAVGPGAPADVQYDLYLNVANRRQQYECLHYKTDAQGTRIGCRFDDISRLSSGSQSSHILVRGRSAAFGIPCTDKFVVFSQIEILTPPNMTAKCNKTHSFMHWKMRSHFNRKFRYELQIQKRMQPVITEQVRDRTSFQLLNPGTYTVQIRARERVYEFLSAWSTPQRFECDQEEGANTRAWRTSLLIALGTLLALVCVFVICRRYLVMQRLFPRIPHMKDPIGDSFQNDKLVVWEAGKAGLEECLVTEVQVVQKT
binder,measurement,setting,value
B1,Kd,[1],0.012 nM
same,Kd,[2],0.015 nM
